Data taken from article PMC11531391 (Cell, 2024).
Where “and” joins values, the source holds several entries; their conditions need not be identical. Equal entries are not always repeated.

T1: L-TGF-β3/GARP (purified complex of latent TGF-β3 with the GARP ectodomain) (human, UniProt Q14392 20-627)
T1 chain 1: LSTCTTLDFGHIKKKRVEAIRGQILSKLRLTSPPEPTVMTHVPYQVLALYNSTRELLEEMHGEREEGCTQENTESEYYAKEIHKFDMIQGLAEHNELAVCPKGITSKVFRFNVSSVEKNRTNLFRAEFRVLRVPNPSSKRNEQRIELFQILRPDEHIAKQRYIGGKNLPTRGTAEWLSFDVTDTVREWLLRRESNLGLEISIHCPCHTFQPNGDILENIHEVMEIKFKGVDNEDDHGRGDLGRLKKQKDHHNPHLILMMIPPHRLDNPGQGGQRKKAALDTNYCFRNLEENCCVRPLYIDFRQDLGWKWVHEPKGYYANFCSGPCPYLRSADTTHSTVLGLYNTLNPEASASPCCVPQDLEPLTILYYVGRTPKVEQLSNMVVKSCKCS
T1 chain 2: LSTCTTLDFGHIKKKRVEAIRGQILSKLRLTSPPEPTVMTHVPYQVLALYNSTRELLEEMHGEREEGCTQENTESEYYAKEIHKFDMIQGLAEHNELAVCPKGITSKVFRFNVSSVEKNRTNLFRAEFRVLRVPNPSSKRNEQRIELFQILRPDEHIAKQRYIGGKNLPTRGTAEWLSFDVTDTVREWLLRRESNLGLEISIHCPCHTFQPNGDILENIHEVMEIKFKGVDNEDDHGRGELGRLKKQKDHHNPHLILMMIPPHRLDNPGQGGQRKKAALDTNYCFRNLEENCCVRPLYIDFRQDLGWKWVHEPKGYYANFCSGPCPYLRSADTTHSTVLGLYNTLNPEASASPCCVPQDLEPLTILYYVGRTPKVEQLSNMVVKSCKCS
T1 chain 3: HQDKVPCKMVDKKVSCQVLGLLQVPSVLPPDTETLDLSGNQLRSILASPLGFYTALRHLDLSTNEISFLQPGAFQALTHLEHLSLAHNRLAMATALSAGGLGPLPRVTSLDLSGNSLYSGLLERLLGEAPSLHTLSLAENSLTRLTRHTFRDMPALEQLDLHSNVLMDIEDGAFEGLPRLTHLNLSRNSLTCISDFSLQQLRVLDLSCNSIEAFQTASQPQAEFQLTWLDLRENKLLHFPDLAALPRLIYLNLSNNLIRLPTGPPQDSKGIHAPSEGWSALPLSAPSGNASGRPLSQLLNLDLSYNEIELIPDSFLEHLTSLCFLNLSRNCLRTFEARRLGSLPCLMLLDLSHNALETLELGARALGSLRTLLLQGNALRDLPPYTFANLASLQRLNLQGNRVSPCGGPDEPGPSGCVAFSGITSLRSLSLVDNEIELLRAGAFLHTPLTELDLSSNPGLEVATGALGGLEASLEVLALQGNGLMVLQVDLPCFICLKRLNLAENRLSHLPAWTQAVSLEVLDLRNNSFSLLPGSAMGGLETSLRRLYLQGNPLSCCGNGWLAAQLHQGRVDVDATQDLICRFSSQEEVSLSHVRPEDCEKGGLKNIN


Legend:
[1] = target: L-TGF-β1 (latent TGF-β1 dimer, R249A, as it stands in L-TGF-β1/GARP) (human); test: cryo-EM structure; purified L-TGF-β1/GARP or L-TGF-β3/GARP alone, 0.3 mg/ml
[2] = target: T1, L-TGF-β3/GARP (purified complex of …); test: mass photometry; L-TGF-β3/GARP with αvβ8; TBS with 1 mM CaCl2, 1 mM MgCl2; conditions: both partners purified
[3] = target: L-TGF-β1/GARP (secreted complex of latent TGF-β1 with the GARP ectodomain) (human) (UniProt Q14392); test: mass photometry + cryo-EM structure; L-TGF-β1/GARP mixed with recombinant αvβ8 ectodomain at 1:1 molar ratio; mass photometry in TBS with 1 mM CaCl2, 1 mM MgCl2

stoichiometry N [1] | stoichiometry N [2] | stoichiometry N [3] | Molecule
2 | – | – | L-TGF-β1 (latent TGF-β1 dimer, R249A, as it stands in L-TGF-β1/GARP) (natural protein)
– | 1 and 2 | 1 and 2 | secreted ectodomain of αvβ8 integrin (receptor, integrin αv, truncated (αvtr pcDM8), secreted ectodomain; integrin β8, truncated (β8tr), secreted ectodomain; also called αvβ8tr; truncated αvβ8 ectodomain; source: ExpiCHO, transfected, purified from supernatant (Protein G crosslinked with antibody 8B8, SEC on Superose 6)) chain 1: FNLDVDSPAEYSGPEGSYFGFAVDFFVPSASSRMFLLVGAPKANTTQPGIVEGGQVLKCDWSSTRRCQPIEFDATGNRDYAKDDPLEFKSHQWFGASVRSKQDKILACAPLYHWRTEMKQEREPVGTCFLQDGTKTVEYAPCRSQDIDADGQGFCQGGFSIDFTKADRVLLGGPGSFYWQGQLISDQVAEIVSKYDPNVYSIKYNNQLATRTAQAIFDDSYLGYSVAVGDFNGDGIDDFVSGVPRAARTLGMVYIYDGKNMSSLYNFTGEQMAAYFGFSVAATDINGDDYADVFIGAPLFMDRGSDGKLQEVGQVSVSLQRASGDFQTTKLNGFEVFARFGSAIAPLGDLDQDGFNDIAIAAPYGGEDKKGIVYIFNGRSTGLNAVPSQILEGQWAARSMPPSFGYSMKGATDIDKNGYPDLIVGAFGVDRAILYRARPVITVNAGLEVYPSILNQDNKTCSLPGTALKVSCFNVRFCLKADGKGVLPRKLNFQVELLLDKLKQKGAIRRALFLYSRSPSHSKNMTISRGGLMQCEELIAYLRDESEFRDKLTPITIFMEYRLDYRTAADTTGLQPILNQFTPANISRQAHILLDCGEDNVCKPKLEVSVDSDQKKIYIGDDNPLTLIVKAQNQGEGAYEAELIVSIPLQADFIGVVRNNEALARLSCAFKTENQTRQVVCDLGNPMKAGTQLLAGLRFSVHQQSEMDTSVKFDLQIQSSNLFDKVSPVVSHKVDLAVLAAVEIRGVSSPDHVFLPIPNWEHKENPETEEDVGPVVQHIYELRNNGPSSFSKAMLHLQWPYKYNNNTLLYILHYDIDGPMNCTSDMEINPLRIKISSLQTTEKNDTVAGQGERDHLITKRDLALSEGDIHTLGCGVAQCLKIVCQVGRLDRGKSAILYVKSLLWTETFMNKENQNHSYSLKSSASFNVIEFPYKNLPIEDITNSTLVTTNVTWGIQPAPMPV chain 2: EDNRCASSNAASCARCLALGPECGWCVQEDFISGGSRSERCDIVSNLISKGCSVDSIEYPSVHVIIPTENEINTQVTPGEVSIQLRPGAEANFMLKVHPLKKYPVDLYYLVDVSASMHNNIEKLNSVGNDLSRKMAFFSRDFRLGFGSYVDKTVSPYISIHPERIHNQCSDYNLDCMPPHGYIHVLSLTENITEFEKAVHRQKISGNIDTPEGGFDAMLQAAVCESHIGWRKEAKRLLLVMTDQTSHLALDSKLAGIVVPNDGNCHLKNNVYVKSTTMEHPSLGQLSEKLIDNNINVIFAVQGKQFHWYKDLLPLLPGTIAGEIESKAANLNNLVVEAYQKLISEVKVQVENQVQGIYFNITAICPDGSRKPGMEGCRNVTSNDEVLFNVTVTMKKCDVTGGKNYAIIKPIGFNETAKIHIHRNCSCQCEDNRGPKGKCVDETFLDSKCFQCDENKCHFDEDQFSSESCKSHKDQPVCSGRGVCVCGKCSCHKIKLGKVYGKYCEKDDFSCPYHHGNLCAGHGECEAGRCQCFSGWEGDRCQCPSAAAQHCVNSKGQVCSGRGTCVCGRCECTDPRSIGRFCEHCPTCYTACKENWNCMQCLHPHNLSQAILDQCKTSCALMEQQHYVDQTSECFSSPSYLR
